From the supplement of paper PMC7877785
± gives the uncertainty stated by the source.

Experiment: self-splicing fitness, log relative to wild type (ln ratio); higher = more splicing; Tetrahymena group I intron in knt gene, E. coli kanamycin selection, DiMSum; sequences stand for … in CUCUCU…GGAGGGAAAAGUUAUCAGGCAUGCACCUGGUAGCUAGUCUUUAAACCAAUAGAUUGCAUCGGUUUAAAAGGCAAGACCGUCAAAUUGCGGGAAAGGGGUCAACAGCCGUUCAGUACCAAGUCUCAGGGGAAACUUUGAGAUGGCCUUGCAAAGGGUAUGGUAAUAAGCUGACGGACAUGGUCCUAACCACGCAGCCAAGUCCUAAGUCAACAGAUCUUCUGUUGAUAUGGAUGCAGUUCACAGACUAAAUGUCGGUCGGGGAAGAUGUAUUCUUCUCAUAAGAUAUAGUCGGACCUCUCCUUAAUGGGAGCUAGCGGAUGAAGUGAUGCAACACUGGAGCCGCUGGGAACUAAUUUGUAUGCGAAAGUAUAUUGAUUAGUUUUGGAGUACUCGUGGUCG
Summary of the method: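 The eight P1ex-region nucleotides of an intron in the knt kanamycin-resistance gene on pET-22b(+) were all randomised and the library put into E. coli BL21(DE3). Six replicate transformations were grown overnight at 37°C or 30°C on LB agar with or without 25 μg/mL kanamycin, together with 100 μg/mL carbenicillin, 50 μM IPTG and 0.2% rhamnose. Colonies were pooled and amplicon-sequenced on an Illumina HiSeq 2500. Fitness from DiMSum is the error-weighted combination of wild-type-normalised replicate fold changes, kanamycin over none.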

| Sequence | self-splicing fitness (ln) (30 °C) | self-splicing fitness (ln) (37 °C) |
| --- | --- | --- |
| CCAUAGCAAUAUUACGUAUG | -3.88 ± 0.15 | -2.19 ± 0.13 |
| AAAAAGCAAUAUUACGAAGU | -2.08 ± 0.13 | -0.998 ± 0.15 |
| CCACAGCAAUAUUACGUAAA | -3.84 ± 0.17 | -2.06 ± 0.18 |
| GCCGAGCAAUAUUACGUCAC |  | -1.57 ± 0.24 |
| AUUCAGCAAUAUUACGUGUU | -2.68 ± 0.1 | -1.39 ± 0.089 |
| AGGUAGCAAUAUUACGUACG | -1.19 ± 0.015 | -0.48 ± 0.034 |
| UUUAAGCAAUAUUACGUGCC | -1.95 ± 0.21 | -0.891 ± 0.22 |
| UUUAAGCAAUAUUACGAAAU | -2.95 ± 0.24 | -1.04 ± 0.19 |
| GCGAAGCAAUAUUACGUGUU | -2.52 ± 0.11 | -2.07 ± 0.11 |
| UUGCAGCAAUAUUACGGCCU | -1.03 ± 0.095 | -0.864 ± 0.18 |
| CUGCAGCAAUAUUACGCGGC |  | -2.63 ± 0.34 |
| UGUGAGCAAUAUUACGCGUU | -2.62 ± 0.2 | -1.89 ± 0.25 |
| AAGUAGCAAUAUUACGCGAU | -3.2 ± 0.16 | -2.19 ± 0.15 |
| UAACAGCAAUAUUACGUGUG | -1.23 ± 0.042 | -0.692 ± 0.055 |
| GUAUAGCAAUAUUACGAGGG | -3.15 ± 0.26 | -0.987 ± 0.23 |
| AGACAGCAAUAUUACGCUUC | -3.78 ± 0.28 | -1.86 ± 0.27 |
| AGACAGCAAUAUUACGCGCU | -2.26 ± 0.12 | -1.63 ± 0.13 |
| CUUAAGCAAUAUUACGAAGG | -2.89 ± 0.17 | -1.54 ± 0.24 |
| GCUUAGCAAUAUUACGAUCC | -0.0566 ± 0.1 | 0.226 ± 0.13 |
| UUUCAGCAAUAUUACGACGC | -2.68 ± 0.24 | -1.67 ± 0.19 |
| CUAGAGCAAUAUUACGCAUA | -2.97 ± 0.27 | -2.93 ± 0.4 |
| AGAUAGCAAUAUUACGAGGG | -3.73 ± 0.41 | -1.77 ± 0.33 |
| UUCUAGCAAUAUUACGGGAU | -3.72 ± 0.29 | -2.37 ± 0.3 |
| UUGUAGCAAUAUUACGGGAC | -0.759 ± 0.16 | -2.7 ± 0.36 |
| UUAAAGCAAUAUUACGGAAC | -1.08 ± 0.23 | -1.69 ± 0.37 |
| UCAAAGCAAUAUUACGCCGA | -1.49 ± 0.15 | -0.381 ± 0.12 |

| Sequence | self-splicing fitness (ln) (30 °C) | self-splicing fitness (ln) (37 °C) |
| --- | --- | --- |
| ACCCAGCAAUAUUACGAGAA | -1.61 ± 0.23 | -1.24 ± 0.21 |
| GAUGAGCAAUAUUACGGUAA | -2.21 ± 0.29 | -2.95 ± 0.38 |
| UACUAGCAAUAUUACGUGCU | -3.85 ± 0.32 | -3.06 ± 0.27 |
| CGGGAGCAAUAUUACGGUAU | -3.81 ± 0.47 | -2.36 ± 0.42 |
| GACCAGCAAUAUUACGCCUA | -0.572 ± 0.11 | 0.226 ± 0.12 |
| ACUAAGCAAUAUUACGAAUG | -2.31 ± 0.13 | -1.2 ± 0.14 |
| CUGUAGCAAUAUUACGACGU | -1.13 ± 0.21 | -1.54 ± 0.26 |
| AGGCAGCAAUAUUACGGCUA | -0.132 ± 0.069 | -0.399 ± 0.078 |
| CACGAGCAAUAUUACGUGGU | -3.86 ± 0.24 | -2.25 ± 0.18 |
| UGUGAGCAAUAUUACGGGUU | -3.22 ± 0.31 | -1.59 ± 0.28 |
| CUCUAGCAAUAUUACGGAAA | -3.74 ± 0.3 | -3.54 ± 0.23 |
| AAUGAGCAAUAUUACGGUCC | -2.47 ± 0.45 |  |
| GUCUAGCAAUAUUACGGUGG | -2.87 ± 0.17 | -3.96 ± 0.46 |
| GCCUAGCAAUAUUACGGUCC | -3.85 ± 0.33 | -1.66 ± 0.24 |
| GCAGAGCAAUAUUACGGGUG | -2.91 ± 0.22 | -1.82 ± 0.16 |
| AAGGAGCAAUAUUACGGGUA | -2.64 ± 0.24 | -2.3 ± 0.46 |
| CUGCAGCAAUAUUACGCAUC |  | -2.46 ± 0.3 |
| AUUCAGCAAUAUUACGAAAG | -1.5 ± 0.11 | -1.03 ± 0.13 |
| UCAGAGCAAUAUUACGAACC |  | -1.15 ± 0.42 |
| CAGAAGCAAUAUUACGGUAU | -3.21 ± 0.19 | -2.47 ± 0.22 |
| AGUCAGCAAUAUUACGAAUA | -0.962 ± 0.2 | -1.22 ± 0.17 |
| UCCCAGCAAUAUUACGUUAA | -1.89 ± 0.093 | -0.696 ± 0.085 |
| GUUUAGCAAUAUUACGGAAU | -2.56 ± 0.31 | -1.26 ± 0.31 |
| UCAAAGCAAUAUUACGCACG | -1.18 ± 0.11 | -0.632 ± 0.16 |
| GCGGAGCAAUAUUACGAUUG | -3.31 ± 0.19 | -2.23 ± 0.24 |
| GAUCAGCAAUAUUACGGAAC | -0.655 ± 0.094 | -0.0305 ± 0.12 |

| Sequence | self-splicing fitness (ln) (30 °C) | self-splicing fitness (ln) (37 °C) |
| --- | --- | --- |
| GGCCAGCAAUAUUACGCUGU | -1.74 ± 0.08 | -1.37 ± 0.11 |
| GCCGAGCAAUAUUACGAUGC | -0.994 ± 0.088 | -0.352 ± 0.096 |
| AACCAGCAAUAUUACGAAAC | -2.26 ± 0.14 | -0.477 ± 0.16 |
| UACCAGCAAUAUUACGGUCC | -1.55 ± 0.11 | -0.0163 ± 0.11 |
| CUAAAGCAAUAUUACGGAAU | -3.72 ± 0.24 | -2.14 ± 0.22 |
| UGCUAGCAAUAUUACGGACG | 0.0612 ± 0.08 | 0.414 ± 0.099 |
| AGGAAGCAAUAUUACGUGGG | -4.36 ± 0.31 | -3.38 ± 0.23 |
| GCUGAGCAAUAUUACGGUUA | -1.74 ± 0.14 | -0.208 ± 0.1 |
| CCCGAGCAAUAUUACGUACU | -3.49 ± 0.24 | -1.24 ± 0.14 |
| UAUAAGCAAUAUUACGGCCU | -0.92 ± 0.16 | -0.641 ± 0.23 |
| CGUUAGCAAUAUUACGAGCA | -0.917 ± 0.09 | -0.809 ± 0.089 |
| GUAAAGCAAUAUUACGCAAU | -0.316 ± 0.098 | -0.564 ± 0.16 |
| AUGGAGCAAUAUUACGCUGG |  | -1.53 ± 0.2 |
| GCUGAGCAAUAUUACGGACG | -0.688 ± 0.1 | -0.674 ± 0.11 |
| CAGAAGCAAUAUUACGUUCA | -2.03 ± 0.14 | -0.728 ± 0.1 |
| UAACAGCAAUAUUACGUGUC | -4.05 ± 0.14 | -2.35 ± 0.13 |
| CGCGAGCAAUAUUACGUAAG | -1.78 ± 0.096 | -1.73 ± 0.12 |
| ACACAGCAAUAUUACGGUCU | -0.341 ± 0.05 | 0.298 ± 0.067 |
| AGUAAGCAAUAUUACGCGAU | -3.74 ± 0.18 | -2.29 ± 0.18 |
| AUAUAGCAAUAUUACGGGGG | -2.92 ± 0.36 | -0.973 ± 0.28 |
| ACUGAGCAAUAUUACGCGGA | -1.94 ± 0.1 | -1.74 ± 0.12 |
| CCCCAGCAAUAUUACGGACU | -3.61 ± 0.14 | -3.13 ± 0.19 |
| GUUUAGCAAUAUUACGUCGC | -1.67 ± 0.16 | -0.462 ± 0.18 |
| UAUGAGCAAUAUUACGCUCG | -2.09 ± 0.21 | -2.2 ± 0.35 |
| UUGAAGCAAUAUUACGGCGU | -0.215 ± 0.11 | 0.00688 ± 0.13 |
